Test results published in US20240368668A1, “SUBSTRATES AND BIOMARKERS OF ADAMTS7” (The Broad Institute, Inc., priority 2021, published 2024).
Square brackets hold non-standard residues; d marks the D form. Ends that are not written are not given here. Met(O) = CS(=O)CC[C@H](N)C(=O)O

molecular target: T1, mouse ADAMTS7 (Mus musculus, UniProt Q68SA9); experiment: TMT10 TAILS N-terminomics, SMC2 experiment (process replicates, trypsin/AspN digest); type: cell-based; conditions: SMC2_TAILS HC; log fold change of N-terminal peptide, Ad-mADAMTS7 WT over Luc
T1 construct: Full-length mouse Adamts7 1-1857 (Uniprot Q68SA9, WT or E373Q catalytic mutant); expressed in transfected cells; host or cells: Human Coronary Artery Smooth Muscle Cells (HCA-SMC, Lonza), adenovirus 50 MOI
T1 sequence (Q68SA9 221-1657): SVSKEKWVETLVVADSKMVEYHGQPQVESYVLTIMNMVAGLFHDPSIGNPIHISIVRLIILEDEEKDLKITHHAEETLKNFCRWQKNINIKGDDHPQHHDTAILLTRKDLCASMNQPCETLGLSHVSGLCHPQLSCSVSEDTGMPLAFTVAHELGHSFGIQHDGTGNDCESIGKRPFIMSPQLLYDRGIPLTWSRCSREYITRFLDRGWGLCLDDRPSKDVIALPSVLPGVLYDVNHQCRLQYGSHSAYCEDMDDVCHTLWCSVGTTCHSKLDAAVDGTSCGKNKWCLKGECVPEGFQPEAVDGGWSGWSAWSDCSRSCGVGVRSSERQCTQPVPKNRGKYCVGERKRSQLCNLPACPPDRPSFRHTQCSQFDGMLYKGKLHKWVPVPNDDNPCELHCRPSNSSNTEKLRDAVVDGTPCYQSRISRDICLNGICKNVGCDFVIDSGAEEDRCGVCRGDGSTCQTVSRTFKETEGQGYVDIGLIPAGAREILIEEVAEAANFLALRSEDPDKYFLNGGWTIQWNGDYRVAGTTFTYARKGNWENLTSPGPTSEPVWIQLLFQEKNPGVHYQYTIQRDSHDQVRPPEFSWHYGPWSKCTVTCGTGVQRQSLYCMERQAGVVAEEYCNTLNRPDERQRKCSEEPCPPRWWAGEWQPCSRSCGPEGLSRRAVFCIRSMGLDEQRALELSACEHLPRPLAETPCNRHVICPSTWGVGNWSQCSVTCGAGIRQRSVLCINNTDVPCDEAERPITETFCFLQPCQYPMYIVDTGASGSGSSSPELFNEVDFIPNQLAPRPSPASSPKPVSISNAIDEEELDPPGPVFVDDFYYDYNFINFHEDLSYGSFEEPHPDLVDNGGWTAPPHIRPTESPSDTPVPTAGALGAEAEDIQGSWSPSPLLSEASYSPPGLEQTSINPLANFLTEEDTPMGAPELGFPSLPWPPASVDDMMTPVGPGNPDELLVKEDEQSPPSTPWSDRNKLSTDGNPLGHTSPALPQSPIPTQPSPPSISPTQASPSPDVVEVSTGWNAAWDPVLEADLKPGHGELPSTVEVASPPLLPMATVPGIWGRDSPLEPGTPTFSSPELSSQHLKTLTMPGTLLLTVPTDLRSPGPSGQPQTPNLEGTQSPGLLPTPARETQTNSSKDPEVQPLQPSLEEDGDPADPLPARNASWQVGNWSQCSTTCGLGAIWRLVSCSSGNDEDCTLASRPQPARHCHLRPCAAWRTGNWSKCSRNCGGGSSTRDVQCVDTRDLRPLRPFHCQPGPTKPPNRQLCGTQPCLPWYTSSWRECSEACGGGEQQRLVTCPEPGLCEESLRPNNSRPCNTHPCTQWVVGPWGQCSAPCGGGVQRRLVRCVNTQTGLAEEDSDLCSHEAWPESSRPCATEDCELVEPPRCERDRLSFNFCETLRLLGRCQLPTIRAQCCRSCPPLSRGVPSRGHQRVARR
Outline: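 Full-length mouse ADAMTS7 (WT or E373Q mutant, C-terminal 3xFLAG) or luciferase was transduced via adenovirus, 50 MOI, into HCA-SMC (SMC1, SMC2) or HUVEC. SMC1: pooled media, technical triplicates 400 ug; SMC2: process triplicates 300 ug; HUVEC: process triplicates 200 ug, bFGF2 10 ng/ml.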

Substance | logFC.mWT.over.Luc
LOXL1_218 (AVASAGVIYPYQPR; listed as Homo sapiens) | 1.72
LOXL2_45 (HQPQAPANVAKIQLR; listed as Homo sapiens) | 2.62
LTBP2_250 (SAAGEGTLAR; listed as Homo sapiens) | 2.49
LTBP2_502 (LVENSVETRPPPWLPASPGHSLW; listed as Homo sapiens) | 2.66
LTBP3_103 (LTGSGFR; listed as Homo sapiens) | 4.80
MAP4_815 (AVASTGPSSR; listed as Homo sapiens) | 1.68
MAP4_816 (VASTGPSSR; listed as Homo sapiens) | 2.53
MMP1_100 (FVLTEGNPR; listed as Homo sapiens) | 2.35
MMP1_185 (FQPGPGIGG; listed as Homo sapiens) | 1.08
NBEA_1892 (LEKVAPLLR; listed as Homo sapiens) | 2.04
PAK4_141 (HSEAGGGSG; listed as Homo sapiens) | 2.47
PLIN3_75 (VSGAQPILSKL; listed as Homo sapiens) | 2.32
POSTN_727 (IITGPEIKYTR; listed as Homo sapiens) | 2.51
PTPRF_1859 (MRYEGVVDMFQTVKTLR; listed as Homo sapiens) | 2.51
QSOX1_210 (HKGVAVR; listed as Homo sapiens) | 1.20
SRGN_59 (LLPGESNKIPR; listed as Homo sapiens) | 3.71
VAT1_42 (AASPPLLR; listed as Homo sapiens) | 3.22
VIM_314 (QESTEYR; listed as Homo sapiens) | 3.06
VIM_333 (LKGTNESLER; listed as Homo sapiens) | 3.75

The next lines start with the values.

logFC.mWT.over.Luc | Substance
1.54 | LTBP2_79 (VAGLQPVER; listed as Homo sapiens)
2.94 | LTBP2_290 (QHVGLSR; listed as Homo sapiens)
1.51 | LTBP3_208 (FLVPLGPGQISA; listed as Homo sapiens)
2.47 | NID1_360 (FHQQHPQVI; listed as Homo sapiens)
3.16 | NID2_291 (HSSVPLGR; listed as Homo sapiens)
2.73 | NID2_951 (YAYPGAR; listed as Homo sapiens)
2.35 | PPP1R18_295 (LSETLTR; listed as Homo sapiens)
1.89 | SHC2_267 (VAKDPINQRACHIL; listed as Homo sapiens)
2.03 | SPOCK1_27 (LAGGAGPNHGNFL; listed as Homo sapiens)
4.08 | TNPO2_744 (VQ[Met(O)]VLNNLVEII[code n]RP[code n]TPKTLLE; listed as Homo sapiens)
1.49 | TNS1_236 (QEGLAGYQR; listed as Homo sapiens)
3.16 | TRGC2_86 (HRCIVRHENNK; listed as Homo sapiens)
3.15 | TTN_5975 (VKEPPVEFTKPL; listed as Homo sapiens)

same assay, conditions: SMC2_TAILS HC; log fold change, mWT over Luc

Substance | logFC.mWT.over.Luc
COL1A2_270 (VGNAGPAGPAGPR; listed as Homo sapiens) | 3.42
COL1A2_305 (LTGAKGAAGLPGVAGAPGLPGPR; listed as Homo sapiens) | 1.60
COL1A2_630 (VGTAGPSGPSGLPGER; listed as Homo sapiens) | 2.03
COL1A2_866 (LLGAPGILGLPGSR; listed as Homo sapiens) | 2.76
COL1A2_960 (AGAPGPHGPVGPAGKHGNR; listed as Homo sapiens) | 2.71
COL1A2_1028 (LQGLPGIAGHHGDQGAPGSVGPAGPR; listed as Homo sapiens) | 1.73
COL18A1_1505 (LQPPVVQLHDSNPYPR; listed as Homo sapiens) | 1.46

The next lines start with the values.

logFC.mWT.over.Luc | Substance
0.82 | COL1A2_80 (QYDGKGVGLGPGPMGLMGPR; listed as Homo sapiens)
1.38 | COL4A2_71 (YNGPPGLQGFPGLQGR; listed as Homo sapiens)

same assay, conditions: log fold change, ADAMTS7 WT over luciferase

logFC.mWT.over.Lux | Substance
3.97 | SERBP1_56 (QAAAQTNSNAAGKQLR; listed as Homo sapiens)
4.23 | SRGN_59 (LLPGESNKIPR; listed as Homo sapiens)
4.65 | THBS2_290 (LSENLKR; listed as Homo sapiens)
2.63 | VIM_314 (QESTEYR; listed as Homo sapiens)
4.37 | VIM_333 (LKGTNESLER; listed as Homo sapiens)
